This experiment deals with mouse MOCCI^FLAG (Modulator of cytochrome C oxidase during Inflammation, FLAG-tagged) (mouse). Put plainly: co-IP; anti-FLAG M2 beads on total mouse heart mitochondria (AAV-MOCCI; AAV-GFP as negative control) solubilised with 1% digitonin in IP buffer (50 mM HEPES-KOH, 150 mM NaCl, 1 mM EDTA, pH 7.4), 4 °C; elution with 3X FLAG peptide; immunoblotting.

“MTCO-1, the catalytic subunit of CIV (cytochrome C oxidase) (from UniProt P00397 1-514) (natural protein)” displayed an enrichment in the anti-FLAG immunoprecipitate of 231%.

These data come from publication PMC8035321.
